Data published in patent publication EP4628508A1 (Biodlink Biopharm Co., Ltd., dated 2025).

Tests used:
human ILT4-ECD protein [1] = target: T1, human ILT4-ECD protein (human, UniProt Q8N423 22-460); test: BLI (Octet RED96e), antibody on AHC biosensor, HuILT4 at 100/50/25 nM
T1 construct: also called HuILT4; LILRB2 (ILT4)

[2] = target: T2, human LILRA4 (R&D System, Cat: 8914-T4-050) (human, UniProt P59901 24-446); test: ELISA, protein coated at 1 µg/mL, antibody at 100 nM, OD450
T2 construct: Bought protein; also called LILRA4 (ILT7); ILT7
T2 sequence (P59901 24-446 limits assumed): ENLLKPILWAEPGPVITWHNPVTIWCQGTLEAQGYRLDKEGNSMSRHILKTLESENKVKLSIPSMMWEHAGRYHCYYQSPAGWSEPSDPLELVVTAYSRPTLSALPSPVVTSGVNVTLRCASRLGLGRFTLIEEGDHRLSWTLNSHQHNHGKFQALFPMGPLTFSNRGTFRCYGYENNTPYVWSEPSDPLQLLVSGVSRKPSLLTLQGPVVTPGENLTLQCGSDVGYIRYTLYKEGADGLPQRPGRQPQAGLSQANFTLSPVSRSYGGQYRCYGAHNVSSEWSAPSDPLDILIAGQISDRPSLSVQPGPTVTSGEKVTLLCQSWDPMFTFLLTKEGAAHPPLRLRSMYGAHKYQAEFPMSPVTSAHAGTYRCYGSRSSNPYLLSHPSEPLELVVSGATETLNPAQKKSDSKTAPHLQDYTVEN

[3] = target: T3, human LILRA6 (R&D System, Cat: 9088-T4-050) (human, UniProt Q6PI73 24-447); test: as above
T3 construct: Bought protein; also called LILRA6 (ILT8); ILT8
T3 sequence (Q6PI73 24-447 limits assumed): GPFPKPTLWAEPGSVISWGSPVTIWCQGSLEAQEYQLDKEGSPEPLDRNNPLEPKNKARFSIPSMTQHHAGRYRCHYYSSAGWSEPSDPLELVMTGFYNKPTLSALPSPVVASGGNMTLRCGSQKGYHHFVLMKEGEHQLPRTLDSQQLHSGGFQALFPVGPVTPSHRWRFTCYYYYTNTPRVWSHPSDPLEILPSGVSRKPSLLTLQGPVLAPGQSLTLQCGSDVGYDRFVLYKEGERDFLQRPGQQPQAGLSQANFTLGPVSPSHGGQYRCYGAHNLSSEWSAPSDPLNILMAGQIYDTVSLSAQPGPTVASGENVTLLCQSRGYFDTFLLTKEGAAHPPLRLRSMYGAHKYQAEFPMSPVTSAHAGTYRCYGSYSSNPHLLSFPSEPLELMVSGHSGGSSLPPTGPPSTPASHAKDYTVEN

[4] = target: T4, human LILRB3 (R&D System, Cat: 9159-T5-050) (human, UniProt O75022 24-443); test: as above
T4 construct: Bought protein; also called LILRB3 (ILT5); ILT5

human ILT2-ECD protein [5] = target: T5, human ILT2-ECD protein (human, UniProt Q8NHL6 24-461); test: as above
T5 construct: also called LILRB1 (ILT2)
T5 sequence (Q8NHL6 24-461 limits assumed): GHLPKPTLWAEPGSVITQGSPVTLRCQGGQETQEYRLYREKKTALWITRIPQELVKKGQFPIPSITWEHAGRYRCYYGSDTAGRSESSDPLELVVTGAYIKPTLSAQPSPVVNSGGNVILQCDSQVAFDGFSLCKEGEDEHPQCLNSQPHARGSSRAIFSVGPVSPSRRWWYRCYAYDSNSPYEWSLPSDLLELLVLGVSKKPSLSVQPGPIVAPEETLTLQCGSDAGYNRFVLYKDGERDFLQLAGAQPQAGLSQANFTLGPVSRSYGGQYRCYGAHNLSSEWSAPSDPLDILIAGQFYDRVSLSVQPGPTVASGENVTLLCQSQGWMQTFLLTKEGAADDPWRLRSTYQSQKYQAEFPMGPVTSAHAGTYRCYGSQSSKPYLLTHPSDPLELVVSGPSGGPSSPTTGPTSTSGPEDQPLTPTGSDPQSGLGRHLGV

[6] = target: T6, human LILRA1 (R&D System, Cat: 9226-T4-050) (human, UniProt O75019 17-461); test: as above
T6 construct: Bought protein; also called LILRA1 (LIR6); LIR6
T6 sequence (O75019 17-461 limits assumed): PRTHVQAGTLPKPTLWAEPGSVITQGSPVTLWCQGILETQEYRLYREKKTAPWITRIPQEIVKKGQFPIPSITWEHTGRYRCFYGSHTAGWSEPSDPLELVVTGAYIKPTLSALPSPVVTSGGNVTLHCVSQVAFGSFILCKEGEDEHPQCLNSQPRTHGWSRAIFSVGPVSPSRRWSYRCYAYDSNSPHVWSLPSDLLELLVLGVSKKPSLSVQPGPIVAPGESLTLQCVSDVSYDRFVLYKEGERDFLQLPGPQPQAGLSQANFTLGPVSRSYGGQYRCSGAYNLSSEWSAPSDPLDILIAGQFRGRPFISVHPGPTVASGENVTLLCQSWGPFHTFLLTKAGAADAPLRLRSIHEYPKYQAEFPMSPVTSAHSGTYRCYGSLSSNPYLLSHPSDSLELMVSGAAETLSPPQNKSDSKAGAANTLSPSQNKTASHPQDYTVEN

[7] = target: T7, human ILT4 expressed on the surface of CHO cells (CHO-huILT4) (human, UniProt Q8N423 22-597); test: flow cytometry on CHO-huILT4 cells
T7 construct: CHO cells infected with lentivirus lenti-huILT4; also called CHO-ILT4; CHO-huILT4 cells
T7 sequence (Q8N423 other isoform, or with tags, fused parts or gaps limits assumed): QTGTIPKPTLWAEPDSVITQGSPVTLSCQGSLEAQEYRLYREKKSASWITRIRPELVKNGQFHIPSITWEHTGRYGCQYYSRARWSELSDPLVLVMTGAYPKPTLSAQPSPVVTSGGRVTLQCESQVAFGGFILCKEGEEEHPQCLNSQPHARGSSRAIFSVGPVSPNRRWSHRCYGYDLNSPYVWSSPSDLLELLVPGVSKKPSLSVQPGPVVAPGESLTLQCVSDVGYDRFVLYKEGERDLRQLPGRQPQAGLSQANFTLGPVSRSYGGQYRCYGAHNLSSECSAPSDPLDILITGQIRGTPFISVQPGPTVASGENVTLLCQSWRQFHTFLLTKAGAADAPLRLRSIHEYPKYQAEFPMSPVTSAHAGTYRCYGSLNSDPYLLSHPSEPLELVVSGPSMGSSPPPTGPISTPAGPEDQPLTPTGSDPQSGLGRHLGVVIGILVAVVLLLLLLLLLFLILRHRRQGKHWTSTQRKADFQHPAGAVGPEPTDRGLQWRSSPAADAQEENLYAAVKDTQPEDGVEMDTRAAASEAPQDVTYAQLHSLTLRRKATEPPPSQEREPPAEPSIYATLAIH

human ILT2-ECD protein [8] = target: T5, human ILT2-ECD protein; test: ELISA, human ILT2-ECD coated at 1 µg/mL
[9] = target: T8, human LILRA3 (R&D System, Cat: 9517-T4-100) (human, UniProt Q8N6C8 24-439); test: ELISA, protein coated at 1 µg/mL, antibody at 100 nM, OD450
T8 construct: Bought protein; also called LILRA3 (LIR4)
T8 sequence (Q8N6C8 24-439 limits assumed): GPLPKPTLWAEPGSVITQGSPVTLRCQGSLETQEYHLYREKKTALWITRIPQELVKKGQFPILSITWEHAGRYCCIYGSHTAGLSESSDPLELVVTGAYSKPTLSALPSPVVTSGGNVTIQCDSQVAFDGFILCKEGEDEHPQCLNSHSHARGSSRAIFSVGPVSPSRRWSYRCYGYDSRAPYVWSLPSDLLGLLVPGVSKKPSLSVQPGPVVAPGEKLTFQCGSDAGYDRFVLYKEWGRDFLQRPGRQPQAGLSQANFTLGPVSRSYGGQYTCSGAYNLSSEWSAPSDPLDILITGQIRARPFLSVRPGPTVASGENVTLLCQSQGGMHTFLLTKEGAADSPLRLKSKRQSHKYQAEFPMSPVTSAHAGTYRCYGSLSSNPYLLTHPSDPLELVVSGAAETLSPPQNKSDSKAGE

human ILT4-ECD protein [10] = target: T1, human ILT4-ECD protein; test: as above

T1 sequence (Q8N423 other isoform, or with tags, fused parts or gaps limits assumed): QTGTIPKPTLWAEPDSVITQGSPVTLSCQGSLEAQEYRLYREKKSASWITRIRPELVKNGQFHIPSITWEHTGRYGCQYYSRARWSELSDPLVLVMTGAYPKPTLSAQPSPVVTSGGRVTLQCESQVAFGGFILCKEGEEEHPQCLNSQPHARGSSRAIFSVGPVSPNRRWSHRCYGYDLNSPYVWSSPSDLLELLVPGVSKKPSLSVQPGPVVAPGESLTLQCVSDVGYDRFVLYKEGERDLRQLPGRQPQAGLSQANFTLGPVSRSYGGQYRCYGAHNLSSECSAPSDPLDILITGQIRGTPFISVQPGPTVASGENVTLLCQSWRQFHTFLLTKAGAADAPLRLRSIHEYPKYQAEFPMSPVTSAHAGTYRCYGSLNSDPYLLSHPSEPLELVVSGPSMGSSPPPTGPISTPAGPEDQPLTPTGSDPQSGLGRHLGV

| Kd (human ILT4-ECD protein [1]) [nM] | kon (human ILT4-ECD protein [1]) [M⁻¹ s⁻¹] | EC50 [7] [nM] | other results | Binder |
| --- | --- | --- | --- | --- |
| < 0.001 | 773000 |  |  | PR302259 (antibody, human IgG1, kappa, V domains shown, IgG1; also called PR302259 (IgG1)) VH: EVQLLESGGGLVQPGGSLRLSCAVSGFTFSSYAMSWVRQAPGKGLEWVSAISDNAGSTYYADSVKGRFTISRDNSKNTLHLQMNSLRAEDTAVYSCAKERQWLVLGVMDAWGQGASVTVSS VL: not shown |
| 0.984 | 520000 |  |  | PR302261 (antibody, human IgG1, kappa, V domains shown, IgG1; also called PR302261 (IgG1)) VH: EVQLLESGGGLVQSGGSLRLSCAASGFTFSSYAMSWVRQAPGKGLGWVSTISGSGGSAYYADSVKGRFTVSRDNSKKTLYLQMNSLRAEDTAVYFCAILSGDDAFDIWGQGTMVTVSS VL: DVVMTQSPLSLPVTPGEPASISCRSSQSLLRGNGYNYLDWYLQKPGQSPQLLIYLGSNRASGVPDRFSGSGSGTDFTLKISRVEAEDVGIFYCMQALQSPLTFGGGTKVEIKR |
| 0.458 | 694000 | 1.13 | binding result [2]: binds; binding result [3]: binds; binding result [4]: binds; binding result (human ILT2-ECD protein [5]): binds; binding result [6]: binds | PR302934 (antibody, human IgG1, kappa, V domains shown, IgG1; also called PR302934 (IgG1)) VH: QVQLQQWGAGLLKPSETLSLTCAVYGGSFSGYYWSWIRQTLGKGLEWIGEVSHSGGTNYNPSLKSRVTISVDTSKNQFSLKLSSVTAADTAVYYCARSPYYGDYMYVFDIWGQGTMVTVSS VL: not shown |
| 0.0767 | 472000 |  | binding result (human ILT2-ECD protein [5]): binds; binding result [6]: binds | PR302264-2 (antibody, human IgG4 S228P, kappa, V domains shown, PTM variant of PR302264, IgG4; also called PR302264-2 (IgG4)) VH: QVQLQQWGAGLLKPSETLSLTCAVYGGSLSGYYWSWIRQPPGKGLEWIGEIAHSGGTNYNPSLKSRVTISVPTSKNQFSLKLTSVTAADTAVYYCARGQQQLDWYFDLWGRGTLVTVSS VL: EIVMTQSPATLSVSPGERATLSCRASQNIYSHLVWYQQKPGQAPRLLIYGASTRATGIPARFSGSGSGTEFTLTITSLQSEDFTVYYCQQYNDWPPITFGQGTRLEIRR |
| 0.351 | 454000 |  | binding result (human ILT2-ECD protein [8]): binds | PR302264-3 (antibody, human IgG4 S228P, kappa, V domains shown, PTM variant of PR302264, IgG4; also called PR302264-3 (IgG4)) VH: QVQLQQWGAGLLKPSETLSLTCAVYGGSLSGYYWSWIRQPPGKGLEWIGEITHSGGTNYNPSLKSRVTISVPTSKNQFSLKLTSVTAADTAVYYCARGQQQLDWYFDLWGRGTLVTVSS VL: EIVMTQSPATLSVSPGERATLSCRASQNIYSHLVWYQQKPGQAPRLLIYGASTRATGIPARFSGSGSGTEFTLTITSLQSEDFTVYYCQQYNDWPPITFGQGTRLEIRR |
| 0.256 | 915000 | 1.05 |  | PR302951 (antibody, human IgG1, kappa, V domains shown, IgG1; also called PR302951 (IgG1)) VH: EVQLLESGGGLVQPGGSLRLSCAASRFTFSTYAMSWVRQAPGKGLEWVSSISGSGFNTYYADSVKGRFTISSDSSKNTLYLQMNSLRAEDTAVYYCAKDRQWLVSSFDYWGQGTLVTVSS VL: DIQMTQSPSSLSASVGDRVTITCQASQDISNYLNWYQQKPGKAPKLLIYDASNLETGVPSRFSGSGSGTDFTFTISSLQPEDIATYYCQQYDNLITFGQGTRLEIKR |
| 0.454 | 985000 | 0.822 |  | PR302949 (antibody, human IgG1, kappa, V domains shown, IgG1; also called PR302949 (IgG1)) VH: EVQLLESGGGLVQPGGSLRLSCAASGFTFSSYAMSWVRQAPGKGLEWVSSISGSDFSTYYADSVKGRFTISRDTSKNTLYLQMNSLRAEDTAVYYCAKDRQWLVSSFDFWGQGALVTVSS VL: DIQMTQSPSSLSASVGDRVTITCQASQDISNYLNWYQQKPGKAPKLLIYDASNLETGVPSRFSGSGSGTDFTFTISSLQPEDIATYYCQQYDNLITFGQGTRLEIKR |
|  |  |  | binding result [9]: binds; binding result (human ILT2-ECD protein [5]): binds; binding result [6]: binds; binding result (human ILT4-ECD protein [10]): binds | PR304683 (antibody, V domains shown, also called Control antibody PR304683 (NGM: WO2021127200); NGM707) VH: QVQLVQSGAEVKKPGASVKVSCKASGYTFTDYYINWVRQAPGQGLEWMGNVNPNDGGTTYNQKFKGRVTMTTDTSTSTAYMELRSLRSDDTAVYYCARREIYFYGTIYYYAMDYWGQGTLVTVSS VL: DIQLTQSPSFLSASVGDRVTITCRASESVDYYGNSFMYWYQQKPGKAPKLLIYFASNLESGVPSRFSGSGSGTEFTLTISSLQPEDFATYYCQQNNEDPWTFGGGTKVEIK |
| 0.884 | 980000 | 0.805 |  | PR302927 (antibody, human IgG1, kappa, V domains shown, IgG1; also called PR302927 (IgG1)) VH: EVQLLESGGGLVQPGGSLRLSCAASGFTFSSYAMSWVRQAPGKGLEWVSTINHIGDSTYYADSVKGRFTISRDNSKNTLYLQMNSLRAEDTAVYYCAKDQWFGVFDYWGQGTLVTVSS VL: not shown |
| 0.124 | 648000 |  |  | PR302282 (antibody, human IgG1, kappa, V domains shown, IgG1; also called PR302282 (IgG1)) VH: QVQLVESGGTVVQSGRSLRLSCAASGFTFSSYGMHWVRQAPGKGLEWVAGMWYDGNYKYYADSVKGRFTISRDNSKNTLSLQMNSLRAEDTAVYYCARDSPIGVFDYWGQGTLVTVSS VL: DIQMTQSPSSLSASVGDRVTITCQASQDISNYLNWYQQKPGKAPKLLIYDASNLETGVPSRFSGSGSGTDFTFTISSLQPEDIATYYCQQYDNLITFGQGTRLEIKR |
| 0.242 | 462000 |  |  | PR302264 (antibody, human IgG1, kappa, V domains shown, IgG1; also called PR302264 (IgG1)) VH: QVQLQQWGAGLLKPSETLSLTCAVYGGSLSGYYWSWIRQPPGKGLEWIGEINHSGGTNYNPSLKSRVTISVPTSKNQFSLKLTSVTAADTAVYYCARGQQQLDWYFDLWGRGTLVTVSS VL: EIVMTQSPATLSVSPGERATLSCRASQNIYSHLVWYQQKPGQAPRLLIYGASTRATGIPARFSGSGSGTEFTLTITSLQSEDFTVYYCQQYNDWPPITFGQGTRLEIRR |
| 3.52 | 431000 |  |  | PR001795 (antibody, V domains shown, also called control antibody PR001795 (Merck: US20180298096); MK-4830) VH: EVQLQQWGAGLLKPSETLSLTCAVYGGSFSGYYWSWIRQPPGKGLEWIGEINHAGSTNYNPSLKSRVTISVDTSKNQFSLKLSSVTAADTAVYYCARLPTRWVTTRYFDLWGRGTLVTVSS VL: ESVLTQPPSVSGAPGQRVTISCTGSSSNIGAGYDVHWYQQLPGTAPKLLIYGDSNRPSGVPDRFSVSKSGASASLAITGLQAEDEADYYCQSFDNSLSAYVFGGGTQLTVL |
|  |  | 1.58 |  | PR302702 (antibody, human IgG1, kappa, V domains shown, IgG1; also called PR302702 (IgG1)) VH: EVQLLESGGGLVQPGGSLRLSCAASGFTFSTYAMTWVRQAPGKGLEWVSSISGSDFNTYYADSVKGRFTISRDISKNTLYLQMNSLRAEDTAVYYCAKDQEWLVRSFHHWGQGTLVTVSS VL: DIQMTQFPSSLFAFVGDRVTITCQASQDISNYLNWYQQKAGKAPKLLINDASNLETGVPSRFSGSGFGTDFTFTISSLQPEDFATYYCQQYENLPTFGGGTKVEIKR |
|  |  | 1.09 |  | PR302950 (antibody, human IgG1, kappa, V domains shown, IgG1; also called PR302950 (IgG1)) VH: QVQLQESGPGLVKPSGTLSLTCAVSGGSISSSNWWSWVRQPPGKGLEWIGEVYHSGSTNYNPSLKSRVTISVDKSQNQFSLKLTSVTAADTAVYYCARVTGNKDYYYYDLDVWGQGTTVTVSS VL: not shown |
|  |  | 1.07 |  | PR301366 (antibody, V domains shown, also called control antibody PR301366 (Five Prime: WO2020014132)) VH: EVQLLESGGGLVQPGGSLRLSCAASGFTFSNYAMNWVRQAPGKGLEWVSVISVSGGSTYYADSVKGRFTISRDNSKNTLYLQMNSLRAEDTAVYYCAKDYYYDSGSYYDSFFDYWGQGTLVTVSS VL: not shown |
